Data as given in patent US20250043302A1, “MUTATED HYDROXYPHENYLPYRUVATE DIOXYGENASE POLYPEPTIDE, AND CODING GENE AND USE THEREOF” (BEIJING DABEINONG BIOTECHNOLOGY CO., LTD., priority 2021, published 2025).
Positions count from the first letter of the chain named. Names and notes keep the numbering of the source.

B1: HvHPPD-02: nucleotide sequence encoding wild-type Hordeum vulgare HPPD; vector DBN11762 (nucleic acid)
DNA: ATGCCGCCGACGCCCACCACCCCAGCAGCTACCGGAGCTGCGGCTGCAGTAACCCCTGAGCATGCTCGGCCCCACAGGATGGTGAGGTTTAATCCAAGATCAGATCGTTTTCATACACTCTCGTTCCACCATGTTGAGTTCTGGTGCGCCGACGCGGCTTCAGCGGCCGGGAGGTTCGCCTTCGCGCTGGGGGCCCCTCTTGCCGCGCGTAGTGATTTGTCTACTGGGAATTCAGCGCACGCGTCCCAGCTTCTCCGAAGCGGCAGTCTCGCCTTTCTCTTCACTGCACCATATGCAAATGGATGTGATGCAGCAACTGCTTCCCTGCCGAGCTTTTCTGCGGATGCCGCGAGGCGATTCAGTGCTGACCATGGGATCGCCGTCCGGTCAGTTGCTCTTAGAGTGGCTGATGCTGCTGAGGCATTCAGGGCTTCAAGGCGTCGTGGTGCACGCCCGGCGTTTGCCCCGGTTGATCTTGGGCGGGGGTTTGCTTTTGCAGAGGTGGAGCTGTACGGCGACGTGGTGCTCCGATTTGTTTCTCACCCGGACGGCACTGATGTGCCCTTCTTGCCAGGATTTGAAGGTGTGACCAACCCTGATGCCGTGGATTATGGACTCACAAGATTTGATCATGTGGTTGGCAATGTTCCTGAATTGGCACCTGCTGCCGCTTACATCGCAGGTTTTACTGGCTTCCATGAATTTGCTGAATTCACGGCGGAGGATGTTGGTACAACTGAGTCAGGGCTGAACAGTGTTGTTTTAGCCAACAACTCAGAAGGAGTTCTCCTTCCCTTGAATGAACCTGTTCATGGAACCAAGCGCCGCTCCCAAATTCAAACATTTCTTGAGCACCACGGCGGCCCTGGTGTTCAACATATTGCTGTCGCCTCTAGCGACGTCCTGCGTACATTACGCAAGATGAGGGCTCGGTCCGCAATGGGTGGTTTCGACTTCCTCCCTCCACCATTGCCAAAATATTATGAAGGCGTCAGAAGACTTGCAGGAGATGTCCTCTCTGAAGCTCAGATCAAGGAGTGCCAAGAACTTGGCGTCTTGGTTGATAGAGATGACCAAGGAGTACTTCTGCAGATATTTACAAAACCCGTTGGTGACAGGCCAACTCTTTTCCTGGAGATGATTCAGAGAATTGGCTGCATGGAGAAAGATGAAAGAGGCGAGGAGTACCAGAAGGGTGGTTGTGGAGGCTTTGGAAAAGGAAACTTCTCAGAGCTGTTCAAGTCCATAGAAGATTACGAGAAAAGTCTAGAAGCCAAGCAGTCTGCTGCAGTGCAAGGTTCCTGA
modifications: HvHPPD-02 Nucleotide Sequence
notes: vector DBN11762
B2: HvHPPDm-F372A-02: nucleotide sequence encoding Hordeum vulgare HPPD with F372A; vector DBN11763 (nucleic acid)
DNA: B1 DNA with T1096G, T1097C, T1098C
modifications: HvHPPDm-F372A-02 Nucleotide Sequence
notes: vector DBN11763
B3: HvHPPDm-F372A-F383W-02: nucleotide sequence encoding Hordeum vulgare HPPD with F372A+F383W; vector DBN11765 (nucleic acid)
DNA: B1 DNA with T1096G, T1097C, T1098C, T1130G, C1131G
modifications: HvHPPDm-F372A-F383W-02 Nucleotide Sequence
notes: vector DBN11765

Key:
Assay type in all cases: in vivo
[1] = test system: Arabidopsis thaliana T1 plants; experiment: Topramezone tolerance of transgenic Arabidopsis thaliana T1 plants (spray, bleached leaf area grade, damage score); settings: 7 DAT, Table 4; for Classification and statistics of the grade of pesticide damage: Grade 0 / Classification and statistics of the grade of pesticide damage: Grade 1 / Classification and statistics of the grade of pesticide damage: Grade 2 / Classification and statistics of the grade of pesticide damage: Grade 3: number of plants; for Scores: pesticide damage score 0-100
Summary of the method: (§1)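 Damage graded 0–3 from the proportion of bleached leaf area 7 days after spraying. Plants were glufosinate-selected T1 lines, 18 days after sowing, plus vector and wild-type controls. Rates: mesotrione 52.5–420, isoxaflutole 35–280, topramezone 25–200 g ai/ha, with water (0×).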

[2] = test system: Arabidopsis thaliana T1 plants; experiment: Isoxaflutole tolerance of transgenic Arabidopsis thaliana T1 plants (spray, bleached leaf area grade, damage score); parameters: Scores (pesticide damage): scale not given here; settings: spray, Arabidopsis thaliana T1 plants; for Classification and statistics of the grade of pesticide damage: Grade 0 (number of plants) / Classification and statistics of the grade of pesticide damage: Grade 1 (number of plants) / Classification and statistics of the grade of pesticide damage: Grade 2 (number of plants) / Classification and statistics of the grade of pesticide damage: Grade 3 (number of plants): 16 plants
Summary of the method: as §1

[3] = test system: Arabidopsis thaliana T1 plants; experiment: Mesotrione tolerance of transgenic Arabidopsis thaliana T1 plants (spray, bleached leaf area grade, damage score); parameters: Scores: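 damage score 0-100 computed as Σ(N×S)/(T×M)×100 over grades 0-3 with higher meaning more damage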; settings: Arabidopsis thaliana T1 plants; for Grade 0 (classification and statistics of the grade of pesticide damage; number of plants) / Grade 1 (classification and statistics of the grade of pesticide damage; number of plants) / Grade 2 (classification and statistics of the grade of pesticide damage; number of plants) / Grade 3 (classification and statistics of the grade of pesticide damage; number of plants): 16 plants
Summary of the method: as §1

[4] = isoxaflutole 35 g ai/ha (0.5x field concentration)
[5] = isoxaflutole 70 g ai/ha (1x field concentration)

Row | Molecule | Classification and statistics of the grade of pesticide damage: Grade 0 ([1]; topramezone 25 g ai/ha (1×)) | Classification and statistics of the grade of pesticide damage: Grade 1 ([1]; topramezone 25 g ai/ha (1×)) | Classification and statistics of the grade of pesticide damage: Grade 2 ([1]; topramezone 25 g ai/ha (1×)) | Classification and statistics of the grade of pesticide damage: Grade 3 ([1]; topramezone 25 g ai/ha (1×)) | Classification and statistics of the grade of pesticide damage: Grade 0 ([1]; topramezone 100 g ai/ha (4×)) | Classification and statistics of the grade of pesticide damage: Grade 1 ([1]; topramezone 100 g ai/ha (4×)) | Classification and statistics of the grade of pesticide damage: Grade 2 ([1]; topramezone 100 g ai/ha (4×)) | Classification and statistics of the grade of pesticide damage: Grade 3 ([1]; topramezone 100 g ai/ha (4×)) | Scores ([1]; topramezone 25 g ai/ha (1×)) | Scores ([1]; topramezone 100 g ai/ha (4×)) | Resistance evaluation ([1]; topramezone 25 g ai/ha (1×)) | Resistance evaluation ([1]; topramezone 100 g ai/ha (4×)) | Resistance evaluation [2, 4] | Scores (pesticide damage) [2, 4] | Classification and statistics of the grade of pesticide damage: Grade 0 (number of plants) [2, 4] | Classification and statistics of the grade of pesticide damage: Grade 1 (number of plants) [2, 4] | Classification and statistics of the grade of pesticide damage: Grade 2 (number of plants) [2, 4] | Classification and statistics of the grade of pesticide damage: Grade 3 (number of plants) [2, 4] | Resistance evaluation [2, 5] | Scores (pesticide damage) [2, 5] | also measured
1 | B1 | 0 | 0 | 0 | 16 | 0 | 0 | 0 | 16 | 100 | 100 | non-resistant (non-resistant plants (scores 68-100)) | non-resistant (non-resistant plants (scores 68-100)) | Non-resistant | 100 | 0 | 0 | 0 | 16 | Non-resistant | 100 | Classification and statistics of the grade of pesticide damage: Grade 0 (number of plants) [2, 5]: 0; Classification and statistics of the grade of pesticide damage: Grade 1 (number of plants) [2, 5]: 0; Classification and statistics of the grade of pesticide damage: Grade 2 (number of plants) [2, 5]: 0; Classification and statistics of the grade of pesticide damage: Grade 3 (number of plants) [2, 5]: 16; Resistance evaluation ([3]; mesotrione 52.5 g ai/ha): Non-resistant; Scores ([3]; mesotrione 52.5 g ai/ha): 100; Grade 0 (classification and statistics of the grade of pesticide damage; number of plants) ([3]; mesotrione 52.5 g ai/ha): 0; Grade 1 (classification and statistics of the grade of pesticide damage; number of plants) ([3]; mesotrione 52.5 g ai/ha): 0; Grade 2 (classification and statistics of the grade of pesticide damage; number of plants) ([3]; mesotrione 52.5 g ai/ha): 0; Grade 3 (classification and statistics of the grade of pesticide damage; number of plants) ([3]; mesotrione 52.5 g ai/ha): 16; Resistance evaluation ([3]; mesotrione 105 g ai/ha): Non-resistant; Scores ([3]; mesotrione 105 g ai/ha): 100; Grade 0 (classification and statistics of the grade of pesticide damage; number of plants) ([3]; mesotrione 105 g ai/ha): 0; Grade 1 (classification and statistics of the grade of pesticide damage; number of plants) ([3]; mesotrione 105 g ai/ha): 0; Grade 2 (classification and statistics of the grade of pesticide damage; number of plants) ([3]; mesotrione 105 g ai/ha): 0; Grade 3 (classification and statistics of the grade of pesticide damage; number of plants) ([3]; mesotrione 105 g ai/ha): 16
2 | B2 | 15 | 1 | 0 | 0 | 8 | 8 | 0 | 0 | 2 | 17 | highly | moderately | Moderately | 33 | 1 | 14 | 1 | 0 | Poorly | 44 | Classification and statistics of the grade of pesticide damage: Grade 0 (number of plants) [2, 5]: 0; Classification and statistics of the grade of pesticide damage: Grade 1 (number of plants) [2, 5]: 12; Classification and statistics of the grade of pesticide damage: Grade 2 (number of plants) [2, 5]: 3; Classification and statistics of the grade of pesticide damage: Grade 3 (number of plants) [2, 5]: 1; Resistance evaluation ([3]; mesotrione 52.5 g ai/ha): Highly resistant; Scores ([3]; mesotrione 52.5 g ai/ha): 15; Grade 0 (classification and statistics of the grade of pesticide damage; number of plants) ([3]; mesotrione 52.5 g ai/ha): 9; Grade 1 (classification and statistics of the grade of pesticide damage; number of plants) ([3]; mesotrione 52.5 g ai/ha): 7; Grade 2 (classification and statistics of the grade of pesticide damage; number of plants) ([3]; mesotrione 52.5 g ai/ha): 0; Grade 3 (classification and statistics of the grade of pesticide damage; number of plants) ([3]; mesotrione 52.5 g ai/ha): 0; Resistance evaluation ([3]; mesotrione 105 g ai/ha): Poorly resistant; Scores ([3]; mesotrione 105 g ai/ha): 56; Grade 0 (classification and statistics of the grade of pesticide damage; number of plants) ([3]; mesotrione 105 g ai/ha): 0; Grade 1 (classification and statistics of the grade of pesticide damage; number of plants) ([3]; mesotrione 105 g ai/ha): 9; Grade 2 (classification and statistics of the grade of pesticide damage; number of plants) ([3]; mesotrione 105 g ai/ha): 3; Grade 3 (classification and statistics of the grade of pesticide damage; number of plants) ([3]; mesotrione 105 g ai/ha): 4
3 | B3 | 16 | 0 | 0 | 0 | 10 | 6 | 0 | 0 | 0 | 13 | highly | highly | Moderately | 25 | 4 | 12 | 0 | 0 | Moderately | 33 | Classification and statistics of the grade of pesticide damage: Grade 0 (number of plants) [2, 5]: 1; Classification and statistics of the grade of pesticide damage: Grade 1 (number of plants) [2, 5]: 14; Classification and statistics of the grade of pesticide damage: Grade 2 (number of plants) [2, 5]: 1; Classification and statistics of the grade of pesticide damage: Grade 3 (number of plants) [2, 5]: 0; Resistance evaluation ([3]; mesotrione 52.5 g ai/ha): Highly resistant; Scores ([3]; mesotrione 52.5 g ai/ha): 8; Grade 0 (classification and statistics of the grade of pesticide damage; number of plants) ([3]; mesotrione 52.5 g ai/ha): 12; Grade 1 (classification and statistics of the grade of pesticide damage; number of plants) ([3]; mesotrione 52.5 g ai/ha): 4; Grade 2 (classification and statistics of the grade of pesticide damage; number of plants) ([3]; mesotrione 52.5 g ai/ha): 0; Grade 3 (classification and statistics of the grade of pesticide damage; number of plants) ([3]; mesotrione 52.5 g ai/ha): 0; Resistance evaluation ([3]; mesotrione 105 g ai/ha): Moderately; Scores ([3]; mesotrione 105 g ai/ha): 29; Grade 0 (classification and statistics of the grade of pesticide damage; number of plants) ([3]; mesotrione 105 g ai/ha): 2; Grade 1 (classification and statistics of the grade of pesticide damage; number of plants) ([3]; mesotrione 105 g ai/ha): 14; Grade 2 (classification and statistics of the grade of pesticide damage; number of plants) ([3]; mesotrione 105 g ai/ha): 0; Grade 3 (classification and statistics of the grade of pesticide damage; number of plants) ([3]; mesotrione 105 g ai/ha): 0
